Data: the supplement of paper PMC10126150
± gives the standard deviation of the averaged measurements.

Tested on: ATP
Assay: switch fluorescence ratio, 500 uM ATP over buffer (Cy3 cluster intensity, sum of 5 cycles each) (fold (ratio)); higher = stronger signal-on switching upon ATP binding; sequences stand for … in TCGTCGGCAGCGTCAGATGTGTATAAGAGACAGTTTTTTTTTTTTTTTTTTTTTTTTT…TC
Conditions: aptamer strand: ATP DNA aptamer (quencher-CACCTGGGGGAGTATTGCGGAGGAAGG + anchor), 100 nM annealed; ATP concentration: 500 uM
In short: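 The quencher-labelled ATP aptamer, at 100 nM, was annealed to Cy3-labelled switching-strand clusters on a modified Illumina MiSeq flow-cell. The clusters were imaged in selection buffer, then after 15 min with 500 uM ATP at 22 °C, and this buffer/ATP cycle ran five times with NaOH stripping and re-annealing between runs. Per-cluster fluorescence ratios, summed target-cycle over summed buffer-cycle Cy3 intensity, were averaged per switch-domain sequence. Clusters outside 100-1000 RFU were excluded.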
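Further: ATP exposure 15 min at 22 °C before imaging.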

Row | Sequence | switch fluorescence ratio
1 | AACACCTAGG | 1.02 ± 0.028
2 | TTCGGACTTC | 0.976 ± 0.064
3 | GTGGGAAGTG | 0.975 ± 0.025
4 | GGTCAGCCGG | 1.02 ± 0.012
5 | ATTATAAAAG | 0.989 ± 0.012
6 | CTTTTAATGG | 1.03 ± 0.068
7 | AAGGAGGTCC | 0.97 ± 0.066
8 | AGTTGTTTCG | 1.016 ± 0.0023
9 | ATAAGTTGTT | 0.993 ± 0.02
10 | ATAGTCGGGC | 0.99 ± 0.022
11 | TTGGCGCGCA | 1.023 ± 0.0016
12 | GACGCTAAAG | 1.08 ± 0.029
13 | TTCCCCGGTG | 1.21 ± 0.24
14 | TAAGGGGTCG | 1.03 ± 0.046
15 | TAGTTCGTAT | 0.986 ± 0.0099
16 | GGTATAGTTA | 1.02 ± 0.037
17 | TGGATAATCG | 0.996 ± 0.024
18 | AATAATGTCG | 1.02 ± 0.06
19 | TGCGTTATCG | 1.025 ± 0.0072
20 | TCAATTCGGC | 0.991 ± 0.025
21 | AAATAAACGA | 0.98 ± 0.0072
22 | ATGGGGGCGG | 1 ± 0.021
23 | TTTTATTTTG | 1.01 ± 0.057
24 | ATTGAGGCAG | 0.9824 ± 0.0028
25 | ATGACAGAAG | 1.03 ± 0.05

Row | Sequence | switch fluorescence ratio
26 | GTGTGCCTGG | 0.985 ± 0.055
27 | GGACTTTGGC | 0.983 ± 0.042
28 | TTTGGAAGT | 0.991 ± 0.028
29 | TAAGTTGAGC | 0.965 ± 0.057
30 | GGGGAGCGCG | 0.981 ± 0.035
31 | ATATCTTTTT | 0.983 ± 0.037
32 | CAAGCGTTTC | 1.06 ± 0.024
33 | ATCTAAACTT | 1.02 ± 0.035
34 | GCTGGTTAGT | 1 ± 0.014
35 | CCTGGGTGGG | 1.12 ± 0.065
36 | TTTTTTGT | 0.982 ± 0.021
37 | GCTATGTTTG | 0.9757 ± 0.0064
38 | GAAATAAGGC | 1.01 ± 0.013
39 | GGCTTAGAGT | 0.971 ± 0.011
40 | TATTGGTAGC | 0.984 ± 0.025
41 | CGTAACTGTT | 0.995 ± 0.091
42 | GTTGGAGGCG | 0.969 ± 0.049
43 | AGAGTGTGGC | 1.07 ± 0.039
44 | GGGAGGTGGT | 1.08 ± 0.17
45 | GGGGAACCAT | 1.01 ± 0.039
46 | CGGCACAATA | 1.78 ± 0.041
47 | AGATCAGTGC | 0.997 ± 0.011
48 | ACACAACTGT | 1.14 ± 0.077
49 | CGGTCGGGTA | 1.01 ± 0.031
50 | AATTTGTTTT | 1.02 ± 0.028

Row | Sequence | switch fluorescence ratio
51 | CGGGCTGGTG | 1.0093 ± 0.0005
52 | TGGCGGGGGT | 0.981 ± 0.012
53 | TTTTTGGGAC | 1.03 ± 0.045
54 | GGACTTGTTT | 0.984 ± 0.022
55 | TTTTGCCGAG | 0.994 ± 0.011
56 | AAACGAGGGA | 0.997 ± 0.051
57 | GCACTGGT | 1.04 ± 0.062
58 | GGGGGGGGTT | 1 ± 0.042
59 | TTGAGTTTGC | 1 ± 0.051
60 | CGGGGGGGAC | 1.11 ± 0.16
61 | TCCGACTGGT | 1.127 ± 0.0014
62 | TTGAAAGGAG | 1 ± 0.026
63 | TAACGCGGAC | 2.5233 ± 3.9e-05
64 | GTGTTATCGG | 1 ± 0.045
65 | GCTTACCCCC | 2.09 ± 0.13
66 | AGGTTCGTAT | 1.01 ± 0.03
67 | CTGTTTAGGA | 1.02 ± 0.053
68 | CGGCCCGCCC | 1.27 ± 0.35
69 | TACAAAGGCG | 1.06 ± 0.018
70 | TTGCTCTCTT | 0.98 ± 0.083
71 | CGGGGGCGCC | 1.02 ± 0.031
72 | AAAAATGCGC | 1.03 ± 0.017
73 | TAAGTTGTAT | 1 ± 0.035
74 | GGGCAGACCA | 1.01 ± 0.011
75 | TTTTCTCTTA | 1.0182 ± 0.00039

Row | Sequence | switch fluorescence ratio
76 | TACTCGGCCG | 1.02 ± 0.035
77 | CCGGTTTTGC | 1.21 ± 0.14
78 | ATGCAATTTT | 1.017 ± 0.0034
79 | GATTGAGGGG | 1.01 ± 0.017
80 | GACACTTGCT | 0.99 ± 0.035
81 | CTTAGGAGGT | 0.987 ± 0.025
82 | AAAAGCAGGA | 1.05 ± 0.052
83 | TCTTTTGGCA | 1.1 ± 0.078
84 | AACTCGGTCG | 1.04 ± 0.051
85 | AATACGGGCG | 1.008 ± 0.0056
86 | GATTAAATAC | 1.24 ± 0.064
87 | AGGGGAATGC | 1.09 ± 0.084
88 | ATAATTCGTA | 0.96 ± 0.024
89 | TTTGAGTAAT | 1.027 ± 0.0017
90 | ATTTTTGGGG | 1.006 ± 0.0088
91 | GTGTGACAGA | 1.01 ± 0.014
92 | CGGATGTAAC | 1.02 ± 0.024
93 | CGTGTGTGGC | 1.02 ± 0.0032
94 | AAATATTGTT | 0.976 ± 0.027
95 | ACTGTTATGG | 1.066 ± 0.0077
96 | AGTATAGCGA | 1.01 ± 0.035
97 | CAAGTGGTTG | 0.984 ± 0.025
98 | TGTAGTCTGG | 0.969 ± 0.024
99 | GCGGGCGGGG | 1.02 ± 0.05
100 | AGGGGTGTCT | 1.03 ± 0.017

Row | Sequence | switch fluorescence ratio
101 | TCAAGTTGGC | 0.998 ± 0.09
102 | AGCTTGTCAA | 0.9774 ± 0.0067
103 | AGGGTAATGC | 1.11 ± 0.09
104 | CGGGTTGGTT | 1.032 ± 0.0056
105 | GTGGGTTGGC | 1.03 ± 0.043
106 | GGATTATTAG | 0.965 ± 0.016
107 | GCTGGGTGAT | 1.018 ± 0.0069
108 | TTTTACTGCA | 1.07 ± 0.073
109 | AGAGGTAACT | 0.993 ± 0.014
110 | ATTTGGGCTC | 0.98 ± 0.029
111 | TCAGTAGCGG | 1.07 ± 0.1
112 | CTGGTTCTTC | 0.95 ± 0.022
113 | ATATATAGTC | 1.02 ± 0.025
114 | AGGTTTTAGT | 1.013 ± 0.005
115 | TTTAGGGGG | 1.04 ± 0.067
116 | TTGATGAGGA | 0.978 ± 0.048
117 | GAAGAGGGAG | 0.997 ± 0.026
118 | CCTTGGGTTG | 1.03 ± 0.032
119 | TGCTGAGACA | 1.01 ± 0.012
120 | CAGCTTGGA | 1.01 ± 0.029
121 | GTTGGCATTA | 1.03 ± 0.023
122 | GAGGAGGGTT | 0.992 ± 0.051
123 | CGGAAGGCCA | 0.9836 ± 0.0044
124 | TAGAACAACT | 1.21 ± 0.34
125 | GGATTGGCGT | 1 ± 0.044

Row | Sequence | switch fluorescence ratio
126 | AGTGGTTCG | 1 ± 0.018
127 | GCATGGAGGG | 1.01 ± 0.025
128 | AGGCATCTGG | 0.994 ± 0.011
129 | GATCATTGAG | 0.991 ± 0.012
130 | CTGGGAGGTG | 1.03 ± 0.055
131 | TAACGGTGTA | 1.02 ± 0.026
132 | GTGATGGTTT | 0.982 ± 0.013
133 | CTAGGGCGCT | 0.983 ± 0.032
134 | TTTATGGGCA | 1.04 ± 0.05
135 | ATCATCGCAG | 1.08 ± 0.058
136 | TTAGTTGTAG | 0.993 ± 0.026
137 | GCAGTCTGCC | 1.02 ± 0.07
138 | CGAAGTTTGC | 1.23 ± 0.33
139 | TATTGAAGGT | 1.026 ± 0.0075
140 | CGCGTGGGGC | 1.06 ± 0.015
141 | CGATCATAGG | 1.01 ± 0.049
142 | TTTGATTTTT | 0.984 ± 0.024
143 | TTTCTCGATG | 1.011 ± 0.0072
144 | ACCTTGAATT | 1 ± 0.0029
145 | GGGTTTACAA | 0.989 ± 0.029
146 | TAATGGATCG | 1 ± 0.044
147 | GTTGGAATCG | 0.991 ± 0.018
148 | TCAGGACGGG | 0.992 ± 0.02
149 | CTGGTCAGGG | 0.988 ± 0.013
150 | GGGGGGGGTG | 1.02 ± 0.068

Row | Sequence | switch fluorescence ratio
151 | GCTAGTTGTA | 0.9995 ± 0.0074
152 | CCATTATGGT | 1.01 ± 0.03
153 | TTAAGCGAAT | 1.002 ± 0.0059
154 | TTGCAAAAGC | 1 ± 0.065
155 | TGTACGGGGG | 0.949 ± 0.021
156 | ATCGAAGGTC | 0.999 ± 0.015
157 | GGACGTATTA | 1.03 ± 0.051
158 | CGTAGGAGTC | 0.963 ± 0.15
159 | GCTTTGATGT | 0.9839 ± 0.0032
160 | TCTGGAGTTG | 1.01 ± 0.084
161 | TGGATATGTG | 1.01 ± 0.018
162 | AGCCTCGTGG | 0.992 ± 0.019
163 | TCGATCTACT | 1.06 ± 0.024
164 | GGTCTGCTTA | 0.9828 ± 0.0065
165 | CACTGAGATG | 1.01 ± 0.03
166 | ACAAGAATTA | 1.01 ± 0.055
167 | GGGTTGGCTC | 0.994 ± 0.041
168 | GTTTTTGACG | 0.955 ± 0.042
169 | AACTTACACG | 1.2 ± 0.018
170 | GGAGCGATGG | 3.31 ± 1.2
171 | ACAACCGTTT | 1.02 ± 0.027
172 | CGATATTGGT | 1 ± 0.017
173 | CCGAAGACAG | 3.11 ± 0.21
174 | TTGTGGTCGT | 0.9859 ± 0.0074
175 | GGAGGGGGTG | 0.989 ± 0.044

Row | Sequence | switch fluorescence ratio
176 | CAATAAGTTT | 1.01 ± 0.043
177 | ATGCTACCAT | 1.05 ± 0.022
178 | TCTGAAGGGG | 1.12 ± 0.11
179 | ATAGGTGTGG | 1.02 ± 0.035
180 | TAGGCGTTGG | 0.972 ± 0.033
181 | TTACGCCGTT | 0.9446 ± 0.0049
182 | GGTTTAGACT | 0.99 ± 0.036
183 | TTTTTTCTCT | 0.994 ± 0.02
184 | GCTTGAGGAG | 1 ± 0.009
185 | TAATAGAGCT | 0.995 ± 0.03
186 | CGGGGTTCGC | 1.95 ± 1.3
187 | GAAGTCTGGA | 1 ± 0.024
188 | CTGATATTGG | 0.994 ± 0.015
189 | TGTAAGGACT | 1.01 ± 0.038
190 | CACTGTCTT | 0.991 ± 0.019
191 | AGAGAGACGT | 0.995 ± 0.029
192 | TCCATAATAG | 1.16 ± 0.028
193 | GCATTCGCCT | 1.08 ± 0.035
194 | CCATGTAAGA | 1.018 ± 0.0091
195 | GAGGTGAACA | 1.04 ± 0.067
196 | GGGCAGGATG | 1.05 ± 0.039
197 | CATATAGAGG | 1.01 ± 0.054
198 | TTTGCAACAG | 0.986 ± 0.023
199 | AGAGGATGGG | 1 ± 0.034
200 | CACCTTTACA | 1.16 ± 0.034
